Laboratory results: IntAct's records for PubMed 23263282

B1: Telomere length regulation protein TEL2 homolog (Homo sapiens), Q9Y4R8 (parent)
chain: MEPAPSEVRLAVREAIHALSSSEDGGHIFCTLESLKRYLGEMEPPALPREKEEFASAHFSPVLRCLASRLSPAWLELLPHGRLEELWASFFLEGPADQAFLVLMETIEGAAGPSFRLMKMARLLARFLREGRLAVLMEAQCRQQTQPGFILLRETLLGKVVALPDHLGNRLQQENLAEFFPQNYFRLLGEEVVRVLQAVVDSLQGGLDSSVSFVSQVLGKACVHGRQQEILGVLVPRLAALTQGSYLHQRVCWRLVEQVPDRAMEAVLTGLVEAALGPEVLSRLLGNLVVKNKKAQFVMTQKLLFLQSRLTTPMLQSLLGHLAMDSQRRPLLLQVLKELLETWGSSSAIRHTPLPQQRHVSKAVLICLAQLGEPELRDSRDELLASMMAGVKCRLDSSLPPVRRLGMIVAEVVSARIHPEGPPLKFQYEEDELSLELLALASPQPAGDGASEAGTSLVPATAEPPAETPAEIVDGGVPQAQLAGSDSDLDSDDEFVPYDMSGDRELKSSKAPAYVRDCVEALTTSEDIERWEAALRALEGLVYRSPTATREVSVELAKVLLHLEEKTCVVGFAGLRQRALVAVTVTDPAPVADYLTSQFYALNYSLRQRMDILDVLTLAAQELSRPGCLGRTPQPGSPSPNTPCLPEAAVSQPGSAVASDWRVVVEERIRSKTQRLSKGGPRQGPAGSPSRFNSVAGHFFFPLLQRFDRPLVTFDLLGEDQLVLGRLAHTLGALMCLAVNTTVAVAMGKALLEFVWALRFHIDAYVRQGLLSAVSSVLLSLPAARLLEDLMDELLEARSWLADVAEKDPDEDCRTLALRALLLLQRLKNRLLPPASP
partner: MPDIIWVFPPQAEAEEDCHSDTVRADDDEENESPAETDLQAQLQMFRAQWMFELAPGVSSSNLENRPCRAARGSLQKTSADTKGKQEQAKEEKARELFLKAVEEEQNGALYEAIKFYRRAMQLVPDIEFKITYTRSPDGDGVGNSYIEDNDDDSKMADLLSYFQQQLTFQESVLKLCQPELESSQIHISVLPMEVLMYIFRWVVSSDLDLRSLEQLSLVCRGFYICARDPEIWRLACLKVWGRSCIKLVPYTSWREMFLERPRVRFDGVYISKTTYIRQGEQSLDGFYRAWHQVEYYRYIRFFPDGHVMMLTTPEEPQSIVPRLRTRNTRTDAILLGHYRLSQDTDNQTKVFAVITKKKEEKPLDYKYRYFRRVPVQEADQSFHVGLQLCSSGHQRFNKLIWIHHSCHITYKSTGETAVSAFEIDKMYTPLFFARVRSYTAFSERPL
B2: TELO2-interacting protein 1 homolog (Homo sapiens), O43156 (parent)
chain: MAVFDTPEEAFGVLRPVCVQLTKTQTVENVEHLQTRLQAVSDSALQELQQYILFPLRFTLKTPGPKRERLIQSVVECLTFVLSSTCVKEQELLQELFSELSACLYSPSSQKPAAVSEELKLAVIQGLSTLMHSAYGDIILTFYEPSILPRLGFAVSLLLGLAEQEKSKQIKIAALKCLQVLLLQCDCQDHPRSLDELEQKQLGDLFASFLPGISTALTRLITGDFKQGHSIVVSSLKIFYKTVSFIMADEQLKRISKVQAKPAVEHRVAELMVYREADWVKKTGDKLTILIKKIIECVSVHPHWKVRLELVELVEDLLLKCSQSLVECAGPLLKALVGLVNDESPEIQAQCNKVLRHFADQKVVVGNKALADILSESLHSLATSLPRLMNSQDDQGKFSTLSLLLGYLKLLGPKINFVLNSVAHLQRLSKALIQVLELDVADIKIVEERRWNSDDLNASPKTSATQPWNRIQRRYFRFFTDERIFMLLRQVCQLLGYYGNLYLLVDHFMELYHQSVVYRKQAAMILNELVTGAAGLEVEDLHEKHIKTNPEELREIVTSILEEYTSQENWYLVTCLETEEMGEELMMEHPGLQAITSGEHTCQVTSFLAFSKPSPTICSMNSNIWQICIQLEGIGQFAYALGKDFCLLLMSALYPVLEKAGDQTLLISQVATSTMMDVCRACGYDSLQHLINQNSDYLVNGISLNLRHLALHPHTPKVLEVMLRNSDANLLPLVADVVQDVLATLDQFYDKRAASFVSVLHALMAALAQWFPDTGNLGHLQEQSLGEEGSHLNQRPAALEKSTTTAEDIEQFLLNYLKEKDVADGNVSDFDNEEEEQSVPPKVDENDTRPDVEPPLPLQIQIAMDVMERCIHLLSDKNLQIRLKVLDVLDLCVVVLQSHKNQLLPLAHQAWPSLVHRLTRDAPLAVLRAFKVLRTLGSKCGDFLRSRFCKDVLPKLAGSLVTQAPISARAGPVYSHTLAFKLQLAVLQGLGPLCERLDLGEGDLNKVADACLIYLSVKQPVKLQEAARSVFLHLMKVDPDSTWFLLNELYCPVQFTPPHPSLHPVQLHGASGQQNPYTTNVLQLLKELQ
partner: B1 partner

Variants of: B1
Conditions: with fbx9_human FBXO9, Q9UK97
With S485A;S487A the “effect of a mutation on the interaction” value was “decreasing interaction strength”.

Variants of: B2
Conditions: with fbx9_human FBXO9, Q9UK97
For S828A, the “effect of a mutation on the interaction” value was “disrupting interaction strength”.
